# Data as given in US11976099B2, “Compositions and methods for treatment of bone associated diseases” (THE NATIONAL INSTITUTE FOR BIOTECHNOLOGY IN THE NEGEV LTD., priority 2016, dated 2024).
# Positions count from the first letter of the chain named. Names and notes keep the numbering of the source. “Also recorded” adds a separate entry of the source.
# T1: murine c-FMS (Mus musculus, UniProt P09581)
# T1 construct: endogenous in cells; host or cells: primary bone marrow derived monocytes from wild-type C57BL6 mice
# T1 sequence (P09581 20-977): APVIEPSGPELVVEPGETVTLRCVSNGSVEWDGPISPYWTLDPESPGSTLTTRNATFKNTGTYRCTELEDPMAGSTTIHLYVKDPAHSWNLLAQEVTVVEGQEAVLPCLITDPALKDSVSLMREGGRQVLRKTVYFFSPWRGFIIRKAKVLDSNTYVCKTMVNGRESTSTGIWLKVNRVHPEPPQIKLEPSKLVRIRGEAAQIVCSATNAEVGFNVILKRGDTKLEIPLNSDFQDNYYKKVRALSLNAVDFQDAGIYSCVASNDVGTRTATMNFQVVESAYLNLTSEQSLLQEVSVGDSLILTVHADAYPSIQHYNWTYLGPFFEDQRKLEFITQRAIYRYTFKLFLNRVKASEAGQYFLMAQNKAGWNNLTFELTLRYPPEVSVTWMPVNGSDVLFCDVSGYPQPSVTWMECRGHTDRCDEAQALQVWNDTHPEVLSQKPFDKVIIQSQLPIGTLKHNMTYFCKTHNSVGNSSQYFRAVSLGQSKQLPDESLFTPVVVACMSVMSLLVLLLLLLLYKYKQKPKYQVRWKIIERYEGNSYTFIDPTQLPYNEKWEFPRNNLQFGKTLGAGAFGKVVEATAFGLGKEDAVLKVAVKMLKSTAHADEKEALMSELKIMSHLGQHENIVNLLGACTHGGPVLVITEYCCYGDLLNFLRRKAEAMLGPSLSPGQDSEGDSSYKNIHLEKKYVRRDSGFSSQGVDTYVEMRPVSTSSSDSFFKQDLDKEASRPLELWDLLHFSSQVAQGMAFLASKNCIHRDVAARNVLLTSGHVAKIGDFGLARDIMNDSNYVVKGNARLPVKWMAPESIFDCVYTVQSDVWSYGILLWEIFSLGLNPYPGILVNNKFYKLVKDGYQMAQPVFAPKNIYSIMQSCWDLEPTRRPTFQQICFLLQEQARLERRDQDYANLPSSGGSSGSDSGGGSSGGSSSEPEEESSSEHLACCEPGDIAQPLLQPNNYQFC
# B1: M-CSFM: 158 amino acid M-CSF with cysteine at position 31 replaced by serine (SEQ ID NO: 2) (protein)
# chain: EEVSEYCSHMIGSGHLQSLQRLIDSQMETSSQITFEFVDQEQLKDPVCYLKKAFLLVQDIMEDTMRFRDNTPNAIAIVQLQELSLRLKSCFTKDYEEHDKACVRTFYETPLQLLEKVKNVFNETKNLLDKDWNIFSKNCNNSFAECSSQGHERQSEGS
# B2: M-CSFC31S,M27R: M-CSF double mutant containing both C31S and M27R; monomeric, monospecific c-FMS antagonist (protein)
# chain: B1 chain with M27R
# B3: M-CSFWT: wild-type human M-CSF, disulfide-bond-linked homodimer which binds and activates c-FMS (protein)
# chain: B1 chain with S31C
# Target: T1, murine c-FMS
# Experiment: c-FMS phosphorylation assay in BMMs (western blot)
# Format: cell-based
# Conditions: for c-FMS phosphorylation level: 0.5 nM murine M-CSFWT + 1 μM variant, versus control
# Protocol: Phosphorylation assay—The experiment was performed on two cell types, BMMs and human peripheral blood CD14^+ monocytes, as follows: (i) BMMs from wild-type C57BL6 mice were purified by flushing the bone marrow from the femur and tibia as previously described (Levaot, N., Simoncic, P. D., Dimitriou, I.D., Scoffer, A., La Rose, J., Ng, A. H. M. et al. (2011) J. Clin. Invest. 121, 3244-3257). The cells were treated with ACK red cells lysis buffer (ThermoFisher Scientific, USA) and grown in complete α-MEM growth medium (Sigma-Aldrich, USA) containing 10% fetal bovine serum (FBS) (selected to not contain LPS to prevent macrophage differentiation), penicillin, streptomycin and L-glutamine. Recombinant murine M-CSF was added at a concentration of 40 ng/ml (Peprotech, Israel) for three days at 37° C. to induce adhesion and proliferation of monocytes. Then, 7×10^5 cells were transferred into a 6-well plate with complete α-MEM and 20 ng/ml murine M-CSF and RANKL (R&D Systems, USA) for 48 h. (ii) CD 14^+ monocytes (Lonza, Switzerland) were grown in complete α-MEM medium for five days in the presence of human M-CSF (20 ng/mL). Then, 3.5×10^5 cells were transferred to a 24-well plate with complete α-MEM medium, […] human M-CSF (R&D Systems, USA) and 20 ng/ml murine RANKL for 72 h. At this point, the medium was replaced with a starvation medium (α-MEM without FBS) for 4 h. After starvation, the cells were washed with PBS and incubated in a starvation medium containing 0.5 nM murine (BMMs) or human (CD14+) M-CSF and 100 nM (CD14^+ cells) or 1 μM (BMMs) of either M-CSFC31S or M-CSFC31S,M27R for 1 min. To test the phosphorylation levels in the absence of murine M-CSFWT, we incubated 0.5, 5, 10, 50, 1000 and 5000 nM of M-CSFC31S or M-CSFC31S,M27R and 0.5,5.10 nM of human M-CSFWT with the cells. The positive control contained 0.5 nM murine (BMMs) or human (CD14^+) M-CSF, and the negative control was incubated in starvation medium without any added protein. The cells were transferred to ice, and lysis buffer (deoxycholate 0.5%, […], 10 mM NaPO4, 1 mM sodium orthovanadate, 5 mM EDTA, pH 7.4, 5 mM EGTA, pH 7.4, 100 mM NaCl, 2% Triton X-100) was added. […] The images were quantified using ImageJ. The quantified intensity values of the phosphorylated c-FMS for each sample were divided by the total c-FMS intensity, and then by the β-actin expression intensity. […]
# To determine whether M-CSFC31S,M27R binds and also antagonizes c-FMS, the phosphorylation of the receptor following incubation with different M-CSF variants was evaluated. […] The cells were lysed, and the expression and phosphorylation levels of c-FMS were evaluated using western blot. C-FMS phosphorylation level was quantified and normalized. […]
Molecule,c-FMS phosphorylation level (BMMs),c-FMS phosphorylation (agonist activity) (0.5-5000 nM without murine M-CSF),"peak concentration of bell-shaped c-FMS phosphorylation curve (BMMs, 1 minute, without murine M-CSF)"
B1,increased levels of phosphorylation,–,–
B2,lower levels of phosphorylated c-FMS,very limited c-FMS phosphorylation at any concentration other than 5 μM; also recorded: did not exhibit phosphorylation capabilities in concentrations lower than 5 μM,–
B3,–,–,5 nM
